± gives the uncertainty stated by the source.
B1: 3'-5' exoribonuclease 1, residues 65 to 114; numbered along this chain, Q8IV48 (parent)
chain: VYKEIAITNGCINRMSKEELRAKLSEFKLETRGVKDVLKKRLKNYYKKQK
B2: Protein C-ets-1, residues 55 to 135; numbered along this chain, P14921 (parent)
chain: GFTKEQQRLGIPKDPRQWTETHVRDWVMWAVNEFSLKGVDFQKFCMNGAALCALGKDCFLELAPDFVGDILWEHLEILQKE

Variants of: B1
Assay: abundance fitness (aPCA) (normalised: wild type 0, dead -1); higher = more abundant; growth selection in yeast, the domain comes from the species named
Conditions: Homo sapiens

Abundance fitness, by site and new letter:
L38: A -0.893 ± 0.11, W -0.629 ± 0.087
Q49: T -0.064 ± 0.06, S -0.19 ± 0.04, D -0.353 ± 0.061, K -0.083 ± 0.055, E -0.192 ± 0.055, L -0.099 ± 0.039
R41: C -1.01 ± 0.078, F -0.887 ± 0.18, M -0.803 ± 0.062
R32: Q -0.396 ± 0.043, C -0.459 ± 0.04, M -0.646 ± 0.051, L -0.703 ± 0.035, D -0.399 ± 0.049, F -0.521 ± 0.042, P -0.964 ± 0.042, H -0.319 ± 0.034
K35: V -0.262 ± 0.044, Y -0.827 ± 0.057, D -0.772 ± 0.063, L -0.698 ± 0.041
I5: M 0.052 ± 0.056, S -0.004 ± 0.036, W -0.225 ± 0.056, F -0.065 ± 0.048
K47: L -0.381 ± 0.042, F -0.572 ± 0.066, C -0.491 ± 0.05, H -0.409 ± 0.075, G -0.447 ± 0.037
Y46: F 0.116 ± 0.06, K -0.32 ± 0.067, S -0.277 ± 0.04, Q -0.166 ± 0.066
N9: W -0.331 ± 0.044, Q -0.174 ± 0.061, L -0.127 ± 0.038
K50: L -0.058 ± 0.09, A -0.159 ± 0.12, E -0.13 ± 0.091, Y -0.162 ± 0.058
K43: M -0.506 ± 0.063, I -0.448 ± 0.074, T -0.55 ± 0.058, Y -0.723 ± 0.083, G -0.846 ± 0.043, V -0.597 ± 0.047
L42: E -0.892 ± 0.057, M -0.611 ± 0.064, T -1.1 ± 0.087, P -0.999 ± 0.081, H -0.907 ± 0.075, W -0.888 ± 0.049
E26: A -0.202 ± 0.052, Y -0.153 ± 0.067, V -0.362 ± 0.054, H -0.267 ± 0.079, Q -0.102 ± 0.074
F27: N 0.007 ± 0.058
L20: E -0.78 ± 0.056, A -0.912 ± 0.05, T -0.913 ± 0.06
A22: P -0.948 ± 0.079, I -0.057 ± 0.069
N44: P -0.767 ± 0.054, R 0.017 ± 0.038, C -0.211 ± 0.066, T -0.086 ± 0.045, F -0.306 ± 0.066, A -0.021 ± 0.04
K3: R -0.131 ± 0.035, S -0.06 ± 0.039, T -0.081 ± 0.046, M -0.287 ± 0.049, N 0.058 ± 0.07, I -0.336 ± 0.06, Y -0.251 ± 0.08
A6: M -0.096 ± 0.11, N -0.003 ± 0.063, W -0.261 ± 0.16, L -0.082 ± 0.07, C -0.172 ± 0.13, P 0.007 ± 0.063
E30: I -0.732 ± 0.046, P -0.283 ± 0.035, H -0.689 ± 0.04, R -0.685 ± 0.036, S -0.148 ± 0.033
T8: P -0.069 ± 0.042, Q -0.199 ± 0.048, R -0.174 ± 0.036, M -0.161 ± 0.053, D -0.274 ± 0.052, S -0.019 ± 0.039

Variants of: B2
Assay: as above
Conditions: Homo sapiens

Abundance fitness of substitutions, site by site:
E5: D -0.216 ± 0.085, C -0.129 ± 0.077, A -0.062 ± 0.045
T3: G -0.042 ± 0.041, L -0.055 ± 0.041, H -0.066 ± 0.094, P -0.177 ± 0.045, Q -0.032 ± 0.067, K 0.025 ± 0.091, R -0.082 ± 0.037, A -0.032 ± 0.042, Y -0.206 ± 0.1, V -0.063 ± 0.041, W -0.031 ± 0.075, M -0.028 ± 0.072, E 0.011 ± 0.081, N -0.121 ± 0.081, I -0.005 ± 0.049, C -0.075 ± 0.068, F -0.029 ± 0.084
F2: Q -0.522 ± 0.15, T -0.23 ± 0.12, I -0.355 ± 0.11, V -0.289 ± 0.047, S -0.365 ± 0.048, L -0.343 ± 0.046, H -0.43 ± 0.16, A -0.24 ± 0.057, N -0.141 ± 0.12, K -0.232 ± 0.14, D -0.143 ± 0.09, G -0.272 ± 0.04, P -0.398 ± 0.074, R -0.298 ± 0.052, M -0.238 ± 0.097, Y -0.161 ± 0.076, C -0.408 ± 0.08, E -0.345 ± 0.1
G1: L -0.157 ± 0.092, N 0.143 ± 0.27, I -0.077 ± 0.16, C -0.21 ± 0.11, S -0.039 ± 0.065, T -0.262 ± 0.17, D 0.074 ± 0.062, W -0.248 ± 0.083, E -0.042 ± 0.068, A -0.091 ± 0.076, M -0.186 ± 0.16, V -0.108 ± 0.055, R -0.191 ± 0.067, Y -0.114 ± 0.2, K 0.049 ± 0.24
K4: F 0.038 ± 0.12, I 0.037 ± 0.11, C -0.108 ± 0.065, M -0.043 ± 0.053, P -0.325 ± 0.068, G -0.054 ± 0.038, E 0.008 ± 0.059, V -0.098 ± 0.036, S -0.055 ± 0.043, W -0.207 ± 0.062, Q -0.031 ± 0.054, A -0.178 ± 0.051, L -0.085 ± 0.042, R -0.071 ± 0.036, Y -0.039 ± 0.092, T -0.071 ± 0.066, H -0.148 ± 0.076, N 0.024 ± 0.11
